Data published in patent US20130259878A1 (OXFORD BIOTHERAPEUTICS, published 2013).
Residue numbers refer to the chain shown, from its start.

Assays:
[1] = target: T1, CDH17 human full length Flag tagged antigen, transfected into HEK293 cells (human, UniProt Q12864 23-832); assay: flow cytometry on HEK293 cells transiently transfected with Flag tagged human CDH17; panel 'CDH17 Human Flag Tag analyzed with CDH17_A4_4K'
T1 construct: The Flag tag may sit at either end; also called Flag tagged Human CDH17; human CDH17; not shown: Flag tag
T1 sequence: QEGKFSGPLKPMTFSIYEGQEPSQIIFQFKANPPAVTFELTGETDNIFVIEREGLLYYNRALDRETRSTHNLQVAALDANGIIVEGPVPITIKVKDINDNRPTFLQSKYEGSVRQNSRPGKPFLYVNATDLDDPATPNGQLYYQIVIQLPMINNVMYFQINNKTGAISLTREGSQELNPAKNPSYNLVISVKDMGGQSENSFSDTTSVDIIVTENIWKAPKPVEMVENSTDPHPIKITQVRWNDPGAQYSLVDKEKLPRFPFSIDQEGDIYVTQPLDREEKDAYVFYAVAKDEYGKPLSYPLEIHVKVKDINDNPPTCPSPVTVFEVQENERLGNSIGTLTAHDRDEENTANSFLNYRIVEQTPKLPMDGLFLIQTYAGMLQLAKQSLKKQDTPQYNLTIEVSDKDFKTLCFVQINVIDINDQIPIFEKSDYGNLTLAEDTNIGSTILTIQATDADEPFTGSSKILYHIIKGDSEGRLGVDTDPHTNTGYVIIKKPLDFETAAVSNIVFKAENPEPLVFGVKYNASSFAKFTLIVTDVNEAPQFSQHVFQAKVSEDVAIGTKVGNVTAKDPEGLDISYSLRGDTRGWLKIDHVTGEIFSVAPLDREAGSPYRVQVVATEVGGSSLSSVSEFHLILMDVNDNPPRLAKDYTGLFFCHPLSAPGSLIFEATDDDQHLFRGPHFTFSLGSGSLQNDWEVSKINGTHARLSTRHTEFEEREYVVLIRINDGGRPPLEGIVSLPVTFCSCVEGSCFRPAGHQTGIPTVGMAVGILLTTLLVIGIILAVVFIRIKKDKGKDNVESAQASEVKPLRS
Procedure: (§1) The humanized monoclonal antibodies, CDH17_A4_{—}4K and CDH17_A4_{—}4R were incubated with cells on ice for 1 hour and then washed twice with cold FACS buffer and re-suspended in 100 ul FACS buffer per well. A secondary antibody was added at 1 ug/ml along with goat anti-mouse H+L PE (Southern Biotech) for Anti-flag and mouse isotype control and goat anti-human H+L PE (Southern Biotech) for human isotype control. The plate was then incubated for 1 hour after which was washed three times with FACS buffer and re-suspended 150 ul FACS buffer per well. 50 ul of 4% paraformaldehyde was then added to fix the cells before storing the plate overnight at 4 degrees C. The sample were then run on Guava EasyCyte Flow Cytometer HT plus and the data analyzed using the Guava Cytosoft software suite.

[2] = target: T1, CDH17 human full length Flag tagged …; assay: flow cytometry on HEK293 cells transiently transfected with Flag tagged human CDH17; panel 'CDH17 Human Flag Tag analyzed with CDH17_A4_4R'
Procedure: as §1

[3] = target: T2, human Cadherin-17 (CDH17), cell-surface, endogenous on human cancer cells (human, UniProt Q12864 23-832); assay: flow cytometry on LoVo cells, antibody titration
T2 construct: Endogenous CDH17 on LoVo, LS174T and SNU-1 cells and in human tumor tissue sections; also called liver-intestine cadherin; LI-cadherin
T2 sequence: T1 sequence

B1: humanized CDH17_A4-4K monoclonal antibody (antibody, V domains shown)
VH: QVQLVQSGAEVKKPGASVKVSCKASGYTLTDHTIHWMRQAPGQRLEWIGYIYPRDGITGYNEKFKGKATLTADTSASTAYMELSSLRSEDTAVYYCARWGYSYRNYAYYYDYWGQGTLVTVSS
VL: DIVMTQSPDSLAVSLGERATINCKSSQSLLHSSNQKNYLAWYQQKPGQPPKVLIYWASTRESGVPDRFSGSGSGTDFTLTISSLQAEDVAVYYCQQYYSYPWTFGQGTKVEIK
notes: It was detected with an anti-human IgG secondary in the HumZAP assay
B1 showed an EC50 [1] of 0.14 nM.

B2: humanized CDH17_A4-4R monoclonal antibody (antibody, V domains shown)
VH: B1 VH with K63R, K65R
VL: DIVMTQSPDSLAVSLGERATINCRSSQSLLHSSNQRNYLAWYQQKPGQPPKVLIYWASTRESGVPDRFSGSGSGTDFTLTISSLQAEDVAVYYCQQYYSYPWTFGQGTKVEIK
notes: as for B1
Binder B2 has an EC50 [2] of 0.13 nM.

B3: CDH17_A4 monoclonal antibody (Fab, V domains shown)
VH: EVQLQQSVAELVKPGASVKMSCKVSGYTLTDHTIHWMKQRPEQGLEWIGYIYPRDGITGYNEKFKGKATLTADTSSSTAYMQLNSLTSEDSAVYFCARWGYSYRNYAYYYDYWGQGTTLTVSS
VL: DIVMSQSPSSLAVSVGEKVTMSCKSSQSLLHSSNQKNYLAWYQQKPGQSPKVLIYWASTRESGVPDRFTGSGSGTDFTLTITSVKSEDLAVYYCQQYYSYPWTFGGGTRLEIK
notes: also called CHD17_A4
B3: binds [3].
